Measurements as given in patent US20070244048A1 (published 2007).
Like-named read-outs stand apart in the source and are kept apart here. Non-standard residues stand in square brackets, D forms with d. No end group written: not given here. *: point of attachment. Succinimide(1-Et,3-yl) = CCN1C(=O)CC(*)C1=O; Palmitoyl = CCCCCCCCCCCCCCCC(=O)*; hArg = N=C(N)NCCCC[C@H](N)C(=O)O; dNle = CCCC[C@@H](N)C(=O)O

T1: human NMUR1 (human, UniProt Q9HB89 1-426)
T1 construct: whole, on cells; Stably expressed in cells (FLIPR); also called hNMUR1; human R1
T1 sequence (looked up): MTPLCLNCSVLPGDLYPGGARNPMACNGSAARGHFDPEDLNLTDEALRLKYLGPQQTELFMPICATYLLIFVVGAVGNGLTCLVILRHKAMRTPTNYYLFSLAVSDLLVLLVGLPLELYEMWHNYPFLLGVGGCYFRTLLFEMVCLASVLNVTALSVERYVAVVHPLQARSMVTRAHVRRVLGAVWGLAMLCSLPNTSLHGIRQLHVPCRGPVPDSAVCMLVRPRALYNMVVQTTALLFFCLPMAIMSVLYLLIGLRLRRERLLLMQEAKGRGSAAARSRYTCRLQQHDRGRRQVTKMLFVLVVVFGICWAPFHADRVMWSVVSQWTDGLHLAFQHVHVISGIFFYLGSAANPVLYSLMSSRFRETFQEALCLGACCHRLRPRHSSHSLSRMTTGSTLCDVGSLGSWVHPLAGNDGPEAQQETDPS

T2: mouse NMUR1-ATG (mouse, UniProt O55040 1-428)
T2 sequence (looked up): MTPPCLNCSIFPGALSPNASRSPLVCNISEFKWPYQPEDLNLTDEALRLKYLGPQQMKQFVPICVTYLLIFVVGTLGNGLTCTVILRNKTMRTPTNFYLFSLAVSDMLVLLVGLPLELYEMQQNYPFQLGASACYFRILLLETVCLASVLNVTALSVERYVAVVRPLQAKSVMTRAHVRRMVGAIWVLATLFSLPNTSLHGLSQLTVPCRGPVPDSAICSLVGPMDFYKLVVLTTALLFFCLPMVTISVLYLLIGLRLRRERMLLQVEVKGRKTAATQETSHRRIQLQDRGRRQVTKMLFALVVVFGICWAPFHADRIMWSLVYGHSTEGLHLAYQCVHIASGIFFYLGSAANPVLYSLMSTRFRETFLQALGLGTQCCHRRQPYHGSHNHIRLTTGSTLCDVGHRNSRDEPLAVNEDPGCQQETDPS

T3: mouse NMUR1-CTG (mouse, UniProt O55040 1-428)
T3 sequence (looked up): T2 sequence (looked up)

T4: rat NMUR1-ATG (rat, UniProt Q9JJI5 1-425)
T4 sequence (looked up): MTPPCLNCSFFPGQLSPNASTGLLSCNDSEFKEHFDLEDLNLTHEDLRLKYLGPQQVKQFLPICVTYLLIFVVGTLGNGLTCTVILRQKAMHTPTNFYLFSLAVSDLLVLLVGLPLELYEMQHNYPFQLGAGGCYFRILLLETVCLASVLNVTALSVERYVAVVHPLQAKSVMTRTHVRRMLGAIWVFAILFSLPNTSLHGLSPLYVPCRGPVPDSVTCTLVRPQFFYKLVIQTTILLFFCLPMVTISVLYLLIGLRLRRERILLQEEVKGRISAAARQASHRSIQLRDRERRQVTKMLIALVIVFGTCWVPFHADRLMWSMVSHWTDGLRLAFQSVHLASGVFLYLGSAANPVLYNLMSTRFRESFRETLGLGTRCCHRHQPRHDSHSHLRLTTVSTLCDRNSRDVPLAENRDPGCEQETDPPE

T5: rat NMUR1-TTG (rat, UniProt Q9JJI5 1-425)
T5 sequence (looked up): T4 sequence (looked up)

B1: neuromedin U receptor agonist D (peptide)
peptide: YF[dA]WRPRN-NH2
modifications: N-terminus assumed
SMILES: C[C@@H](NC(=O)[C@H](Cc1ccccc1)NC(=O)[C@@H](N)Cc1ccc(O)cc1)C(=O)N[C@@H](Cc1c[nH]c2ccccc12)C(=O)N[C@@H](CCCNC(=N)N)C(=O)N1CCC[C@H]1C(=O)N[C@@H](CCCNC(=N)N)C(=O)N[C@@H](CC(N)=O)C(N)=O
B2: neuromedin U receptor agonist P (peptide)
peptide: FRVDEEFQSPFASQSRGFWLFRA[hArg]N-NH2
modifications: N-terminus assumed
SMILES: CC(C)C[C@H](NC(=O)[C@H](Cc1c[nH]c2ccccc12)NC(=O)[C@H](Cc1ccccc1)NC(=O)CNC(=O)[C@H](CCCNC(=N)N)NC(=O)[C@H](CO)NC(=O)[C@H](CCC(N)=O)NC(=O)[C@H](CO)NC(=O)[C@H](C)NC(=O)[C@H](Cc1ccccc1)NC(=O)[C@@H]1CCCN1C(=O)[C@H](CO)NC(=O)[C@H](CCC(N)=O)NC(=O)[C@H](Cc1ccccc1)NC(=O)[C@H](CCC(=O)O)NC(=O)[C@H](CCC(=O)O)NC(=O)[C@H](CC(=O)O)NC(=O)[C@@H](NC(=O)[C@H](CCCNC(=N)N)NC(=O)[C@@H](N)Cc1ccccc1)C(C)C)C(=O)N[C@@H](Cc1ccccc1)C(=O)N[C@@H](CCCNC(=N)N)C(=O)N[C@@H](C)C(=O)N[C@@H](CCCCNC(=N)N)C(=O)N[C@@H](CC(N)=O)C(N)=O
B3: neuromedin U receptor agonist B (peptide)
peptide: YF[dL]WRPRN-NH2
modifications: N-terminus assumed
SMILES: CC(C)C[C@@H](NC(=O)[C@H](Cc1ccccc1)NC(=O)[C@@H](N)Cc1ccc(O)cc1)C(=O)N[C@@H](Cc1c[nH]c2ccccc12)C(=O)N[C@@H](CCCNC(=N)N)C(=O)N1CCC[C@H]1C(=O)N[C@@H](CCCNC(=N)N)C(=O)N[C@@H](CC(N)=O)C(N)=O
B4: neuromedin U receptor agonist I (peptide)
peptide: FWLFRP[hArg]N-NH2
modifications: N-terminus assumed
SMILES: CC(C)C[C@H](NC(=O)[C@H](Cc1c[nH]c2ccccc12)NC(=O)[C@@H](N)Cc1ccccc1)C(=O)N[C@@H](Cc1ccccc1)C(=O)N[C@@H](CCCNC(=N)N)C(=O)N1CCC[C@H]1C(=O)N[C@@H](CCCCNC(=N)N)C(=O)N[C@@H](CC(N)=O)C(N)=O
B5: neuromedin U receptor agonist J (peptide)
peptide: FWLFRA[hArg]N-NH2
modifications: N-terminus assumed
SMILES: CC(C)C[C@H](NC(=O)[C@H](Cc1c[nH]c2ccccc12)NC(=O)[C@@H](N)Cc1ccccc1)C(=O)N[C@@H](Cc1ccccc1)C(=O)N[C@@H](CCCNC(=N)N)C(=O)N[C@@H](C)C(=O)N[C@@H](CCCCNC(=N)N)C(=O)N[C@@H](CC(N)=O)C(N)=O
B6: neuromedin U receptor agonist Q (peptide)
peptide: FRVDEEFQSPFASQSRGFWLFRPR[dNle]-NH2
modifications: N-terminus assumed
SMILES: CCCC[C@@H](NC(=O)[C@H](CCCNC(=N)N)NC(=O)[C@@H]1CCCN1C(=O)[C@H](CCCNC(=N)N)NC(=O)[C@H](Cc1ccccc1)NC(=O)[C@H](CC(C)C)NC(=O)[C@H](Cc1c[nH]c2ccccc12)NC(=O)[C@H](Cc1ccccc1)NC(=O)CNC(=O)[C@H](CCCNC(=N)N)NC(=O)[C@H](CO)NC(=O)[C@H](CCC(N)=O)NC(=O)[C@H](CO)NC(=O)[C@H](C)NC(=O)[C@H](Cc1ccccc1)NC(=O)[C@@H]1CCCN1C(=O)[C@H](CO)NC(=O)[C@H](CCC(N)=O)NC(=O)[C@H](Cc1ccccc1)NC(=O)[C@H](CCC(=O)O)NC(=O)[C@H](CCC(=O)O)NC(=O)[C@H](CC(=O)O)NC(=O)[C@@H](NC(=O)[C@H](CCCNC(=N)N)NC(=O)[C@@H](N)Cc1ccccc1)C(C)C)C(N)=O

Experiments:
[1] = target: T1, human NMUR1; test: 125I-hNMU-25 displacement, HEK cell membranes
Experimental: (§1) Confluent cell monolayers expressing NMU receptors (the HEK cells described above) were harvested with phosphate buffered saline, collected by centrifugation, and resuspended in membrane buffer (50 mM TrisCl pH 7.4, 5 mM MgCl₂, 1× Protease Inhibitor Cocktail, 10 μM phosphoramidon). After the cell pellet was homogenized, the solution was centrifuged at 18,000 rpm for 20 minutes at 4° C. The pellet was resuspended in membrane buffer to yield a final concentration of 0.5-5 μg/μL of membrane and stored at −80° C.
(§2) Experiments were performed in assay buffer (25 mM TrisCl, pH 7.4, 10 mM MgCl₂, 2mM EDTA, 1× Protease Inhibitor Cocktail, 100 μg/mL Bacitricin, 10 μM phosphoramidon) in 200 μL volumes in a 96-well format using 2-5 μg of membrane and […] ¹²⁵I-hNMU-25 (about 12,000 cpm/well). For non-specific binding, 1 μM hNMU-25 was added. About 5 μL of peptides were added to measure antagonist activity, and the entire reaction was incubated at room temperature with shaking for 80 minutes. The reaction was terminated by rapid filtration through 0.3% poly-ethylenimine presoaked Millipore 96-well filter plates and washed with ice-cold buffer (5 mM TrisCl pH 7.4, 10 mM MgCl₂, 2.5 mM EDTA, 0.04% Triton X-100). Plates were air-dried overnight at room temperature and recovered radioactivity was determined by standard scintillation counting. IC₅₀ values were determined using GraphPad Prism software.
(§3) Concentration-response curves and radioligand-binding data were fitted using Prism (GraphPad Software). Results are summarized below in Tables 8 and 9.

[2] = target: T6, human NMUR2 (human, UniProt Q9GZQ4 1-415); test: 125I-hNMU-25 displacement, HEK cell membranes
T6 construct: whole, on cells; Stably expressed in cells (FLIPR); also called hNMUR2; human R2
T6 sequence (Q9GZQ4 whole entry): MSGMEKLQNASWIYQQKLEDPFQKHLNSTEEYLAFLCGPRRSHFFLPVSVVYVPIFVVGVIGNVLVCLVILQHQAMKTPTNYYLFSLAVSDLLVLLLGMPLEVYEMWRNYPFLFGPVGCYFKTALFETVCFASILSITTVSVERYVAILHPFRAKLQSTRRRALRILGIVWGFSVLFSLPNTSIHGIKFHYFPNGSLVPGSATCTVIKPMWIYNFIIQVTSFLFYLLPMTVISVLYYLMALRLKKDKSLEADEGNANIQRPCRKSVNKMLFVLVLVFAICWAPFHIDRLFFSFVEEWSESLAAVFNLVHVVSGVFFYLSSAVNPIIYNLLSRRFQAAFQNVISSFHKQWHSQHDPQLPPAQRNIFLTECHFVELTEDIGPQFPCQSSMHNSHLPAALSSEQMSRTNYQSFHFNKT
Experimental: as §1, §2, §3

[3] = target: T1, human NMUR1; test: cell-based or functional assay
[4] = target: T6, human NMUR2; test: cell-based or functional assay
[5] = target: T1, human NMUR1; test: cell-based or functional assay; remark: listed apart in the source
[6] = target: T6, human NMUR2; test: cell-based or functional assay; remark: listed apart in the source
[7] = target: T2, mouse NMUR1-ATG; test: cell-based or functional assay
[8] = target: T3, mouse NMUR1-CTG; test: cell-based or functional assay
[9] = target: mouse NMUR2 (mouse, UniProt Q8BZ39 1-395); test: cell-based or functional assay
Sequence of mouse NMUR2 (Q8BZ39 whole entry): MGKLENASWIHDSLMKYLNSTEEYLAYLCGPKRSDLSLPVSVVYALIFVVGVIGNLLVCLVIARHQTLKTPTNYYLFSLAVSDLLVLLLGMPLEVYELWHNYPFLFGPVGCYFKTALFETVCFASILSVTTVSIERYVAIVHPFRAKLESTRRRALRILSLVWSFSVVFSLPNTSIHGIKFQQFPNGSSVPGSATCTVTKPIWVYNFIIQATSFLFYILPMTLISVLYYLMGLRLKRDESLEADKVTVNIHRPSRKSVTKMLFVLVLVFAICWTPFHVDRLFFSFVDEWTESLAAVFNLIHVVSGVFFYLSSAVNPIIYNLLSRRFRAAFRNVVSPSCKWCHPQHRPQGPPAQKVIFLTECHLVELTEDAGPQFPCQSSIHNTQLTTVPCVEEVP

[10] = target: rat NMUR2 (rat, UniProt Q9ESQ4 1-395); test: cell-based or functional assay
Sequence of rat NMUR2 (Q9ESQ4 whole entry): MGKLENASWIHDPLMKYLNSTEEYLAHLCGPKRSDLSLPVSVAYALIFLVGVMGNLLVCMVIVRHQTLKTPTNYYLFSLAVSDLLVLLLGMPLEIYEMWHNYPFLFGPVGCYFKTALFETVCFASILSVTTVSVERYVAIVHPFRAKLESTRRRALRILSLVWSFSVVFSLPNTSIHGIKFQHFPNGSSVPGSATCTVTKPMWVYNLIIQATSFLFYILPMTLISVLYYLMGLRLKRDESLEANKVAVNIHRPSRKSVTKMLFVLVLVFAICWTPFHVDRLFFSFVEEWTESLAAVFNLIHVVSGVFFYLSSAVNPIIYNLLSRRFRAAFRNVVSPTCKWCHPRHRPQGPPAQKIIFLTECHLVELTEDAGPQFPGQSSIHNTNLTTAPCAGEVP

[11] = target: T4, rat NMUR1-ATG; test: cell-based or functional assay
[12] = target: T5, rat NMUR1-TTG; test: cell-based or functional assay
[13] = target: T1, human NMUR1; test: cell-based or functional assay; remark: listed apart in the source
[14] = target: T6, human NMUR2; test: cell-based or functional assay; remark: listed apart in the source

Row | Binder | % activity (binding) [1] | IC50 [1] | % activity (binding) [2] | % activity [3] | IC50 (nM), functional [3] | % activity [4] | IC50 (nM), functional [4] | % activity [13] | EC50 [13] | % activity [14] | EC50 [14] | IC50 [2] | further results
1 | B1 | 100% | 2.6 nM | 0% | 96% | 1.5 nM | 0% | > 1000 nM |  |  |  |  |  | 
2 | Palmitoyl-C(Succinimide(1-Et,3-yl))FRVDEEFQSPFASQSRGYFLFRPRN-NH2 [NMU24] |  |  |  |  |  |  |  |  |  |  |  |  | % Activity (FLIPR) [5]: 34.4%; EC50 (FLIPR) [5]: 1000 nM; % Activity (FLIPR) [6]: 63.9%; EC50 (FLIPR) [6]: 1000 nM; % Activity (FLIPR) [7]: 81.4%; EC50 (FLIPR) [7]: 1000 nM; % Activity (FLIPR) [8]: 56.1%; EC50 (FLIPR) [8]: 591 nM; % Activity (FLIPR) [9]: 82.4%; EC50 (FLIPR) [9]: 1000 nM; % Activity (FLIPR) [10]: 52.2%; EC50 (FLIPR) [10]: 986 nM; % Activity (FLIPR) [11]: 80.8%; EC50 (FLIPR) [11]: 236 nM; % Activity (FLIPR) [12]: 67.7%; EC50 (FLIPR) [12]: 222 nM
3 | B2 | 1% |  | 81% |  |  |  |  | 11% | 46 nM | 100% | 25 nM | 150 nM | 
4 | YFGWRPRN-NH2 [neuromedin U receptor agonist C] | 100% | 0.42 nM | 0% | 87% | 1.1 nM | 0% | > 1000 nM |  |  |  |  |  | 
5 | FALFRPRN-NH2 [neuromedin U receptor agonist N] | 38.4% |  | 100% |  |  |  |  | 87% | 53 nM | 100% | 3.9 nM | 22 nM | 
6 | B3 | 96% | 14 nM | 35% | 103% | 9 nM | 0% | > 1000 nM |  |  |  |  |  | 
7 | B4 | 23% |  | 90% |  |  |  |  | 7% | > 1000 nM | 99% | 10 nM | 9.1 nM | 
8 | B5 | 34% |  | 63% |  |  |  |  | 0% | > 1000 nM | 59% | 160 nM | 150 nM | 
9 | B6 | 16% |  | 89% |  |  |  |  | 0% | > 1000 nM | 97% | 18.3 nM | 12 nM | 
